Columns and labels:
[1] = test system: CD127 internalization and degradation; assay: IL-7 induced CD127 internalization and degradation in HPB-ALL, flow cytometry; format: cell-based, human; settings: humanized antibodies, 33 nM, vs ritlecitinib
Source text: Specific methods for IL-7 function were developed in HPB-ALL [Henriques et al., Blood., 2010; 115 (16): 3269-77]. IL-7 could trigger the internalization of its own receptor, CD127 (or IL-7Rai), into the cell compartment for degradation. As the CD127 degradation depends on the JAK3 activated status after IL-7 stimulation, blockade of γc binding to CD127 and downstream signaling pathway should stop CD127 internalization and degradation in HPB-ALL.
After antibody or inhibitor pretreatment, HPB-ALL was challenged with 50 ng/ml IL-7 for 3 hours. Surface CD127 expression was performed in live cells while total CD127 expression was investigated in PFA fixed and permeabilized cells. Cells were stained with APC-conjugated CD127 antibody for flow cytometry analysis.

mouse γc = target: T1, mouse γc (Mus musculus, UniProt P34902); assay: BLI binding kinetics to mouse γc protein
T1 construct: 6×His (C)
T1 sequence (P34902 with tags, fused parts or gaps): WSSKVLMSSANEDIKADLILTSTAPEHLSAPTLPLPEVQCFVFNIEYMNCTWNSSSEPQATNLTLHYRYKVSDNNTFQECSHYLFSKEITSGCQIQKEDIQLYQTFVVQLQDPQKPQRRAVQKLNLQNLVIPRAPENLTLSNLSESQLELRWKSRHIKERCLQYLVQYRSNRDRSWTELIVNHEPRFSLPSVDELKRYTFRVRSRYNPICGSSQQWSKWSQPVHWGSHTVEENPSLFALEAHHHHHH

[2] = test system: IL-9 induced ERK phosphorylation; assay: Western blot of IL-9 induced ERK phosphorylation in Jurkat T cells; format: cell-based, human; settings: humanized antibodies; 33 nM (5 μg/ml)
cynomolgus γc = assay: BLI binding kinetics to cynomolgus γc protein; design: species or system cynomolgus (Macaca fascicularis)
T cells = assay: Mixed lymphocyte reaction (MLR) in human PBMC; format: cell-based; settings: CFSE, flow cytometry
Method: To provide hints at effects of humanized antibodies to target GvHD, MLR assay was developed in our PBMC system (FIG. 29A). In brief, total T cells were isolated from PBMC of donor 1 while T cells were depleted from PBMC of donor 2. T cells from donor 1 were activated with a cocktail of anti-CD3 and anti-CD28 antibodies in the presence of IL-2. Simultaneously, T cells were incubated with humanized antibodies or ritlecitinib together with inducing agents. After 3 days, T cells were labelled with CFSE before co-culture with T-cell depleted culture from donor 2 for 6 days. Proliferating T cells were identified as CFSE low or CSFE negative population in flow cytometry.

[3] = Structural stability by SEC-HPLC; format: physicochemical; settings: for purity by SEC-HPLC after incubation: 12 days after PBS exchange at RT and 37° C.
Method: Next, structural stabilities of hSM-05A and hSM-05E were studied by incubation at either room temperature or 37° C. for around 2 weeks. SEC-HPLC was utilized to measure aggregates and degradation of antibodies. […] No degradation of the antibodies was observed aft er 2 weeks.

human γc proteins = target: T2, human γc proteins (Homo sapiens, UniProt P31785); assay: BLI binding kinetics to human γc protein
T2 construct: extracellular domain of human γc protein (amino acids: 1-262); host or cells: Expi-CHO (e.g.)
T2 sequence (P31785 23-262): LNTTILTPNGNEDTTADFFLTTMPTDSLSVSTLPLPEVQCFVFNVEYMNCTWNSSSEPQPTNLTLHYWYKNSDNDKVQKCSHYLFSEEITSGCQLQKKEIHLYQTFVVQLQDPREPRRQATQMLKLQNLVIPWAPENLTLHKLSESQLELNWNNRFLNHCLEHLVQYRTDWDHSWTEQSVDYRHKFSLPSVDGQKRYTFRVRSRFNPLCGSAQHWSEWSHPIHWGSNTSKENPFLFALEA
Method: (§1) Full-length humanized antibodies were evaluated by BLI to access their binding kinetics. The binding activities of full-length anti-γc antibody were investigated using γc proteins (extracellular domain) from human and common marmoset (either purchased or in-house generated). Briefly, anti-γc antibody (20 μg/mL) was immobilized on biosensors via interactions with anti-human IgG; serially diluted γc proteins (at a concentration of 158.7 nM, 79.4 Nm, 39.7n M and 0 nM respectively) were subsequently added following standard operation protocols of the Octet ReD96 system to plot out the association and dissociation curve. Irrelevant antibody (SM03, anti-human CD22 chimeric IgG1 antibody, SinoMab BioScience Limited) was used as the control reference. The KD is within the picomolar-single digit nanomolar range.

IL-2 induced p-STAT3 = assay: Suppression of p-STAT in PBMC, IL-2; format: cell-based, human; settings: antibody 10 μg/ml, compared to isotype control
Method: (§2) Given numbers refer to the percentage of inhibition compared to isotype control stimulated with respective γc cytokine. Antibody concentration is 10 μg/ml.

common marmoset γc = assay: BLI binding kinetics to common marmoset γc protein; design: species or system common marmoset (Callithrix jacchus)
Method: as §1

IL-4 induced p-STAT6 = assay: Suppression of p-STAT in PBMC, IL-4; format: cell-based, human; settings: antibody 10 μg/ml, compared to isotype control
Source text: PBMC isolated from healthy individuals (iXCells Biotechnologies, San Diego, USA) is chosen as the primary immune cell culture to conclude the efficacies of anti-γc antibodies in the primary cells. As STAT phosphorylation could be triggered by the treatment of all six γc cytokines (except IL-9) in the PBMC culture (FIG. 12A-B), inhibition of p-STAT could be used as an indicator to confirm the efficacies of anti-γc antibodies.
as §2

[4] = test system: native γc proteins from common marmoset; assay: Binding to native common marmoset γc on transfected HEK-293 cells, flow cytometry; format: cell-based; settings: FITC-labelled antibody 33 nM (5 μg/ml)
Method: The binding specificities of humanized anti-γc antibodies to native γc proteins were further evaluated by […] binding assay. In brief, human HEK-293 cells were transfected with plasmid expressing full length γc protein from human, rhesus, cynomolgus or common marmoset. Two days later, transfected cells or non-transfected controls were incubated with FITC-conjugated hSM-05A on ice for an hour before analysis by flow cytometry.

rat γc = assay: BLI binding kinetics to rat γc protein
[5] = room temperature or 37° C. for around 2 weeks

Chain of cynomolgus γc (as listed by the source): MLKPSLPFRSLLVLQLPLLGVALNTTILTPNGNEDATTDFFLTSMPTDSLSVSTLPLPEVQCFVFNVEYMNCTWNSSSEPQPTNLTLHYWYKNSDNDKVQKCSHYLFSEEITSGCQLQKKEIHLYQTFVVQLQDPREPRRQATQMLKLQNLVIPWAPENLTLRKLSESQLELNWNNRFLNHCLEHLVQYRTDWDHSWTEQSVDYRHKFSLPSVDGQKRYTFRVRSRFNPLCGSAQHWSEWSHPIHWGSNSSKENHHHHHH
Chain of common marmoset γc (as listed by the source): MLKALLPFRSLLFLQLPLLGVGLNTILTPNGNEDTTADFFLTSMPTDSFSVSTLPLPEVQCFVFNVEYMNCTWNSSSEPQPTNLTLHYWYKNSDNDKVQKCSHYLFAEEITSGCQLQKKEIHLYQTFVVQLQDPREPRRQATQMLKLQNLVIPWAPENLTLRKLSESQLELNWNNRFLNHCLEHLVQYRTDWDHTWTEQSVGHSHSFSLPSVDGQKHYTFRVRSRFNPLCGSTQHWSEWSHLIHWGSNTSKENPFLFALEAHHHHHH
Chain of rat γc (as listed by the source): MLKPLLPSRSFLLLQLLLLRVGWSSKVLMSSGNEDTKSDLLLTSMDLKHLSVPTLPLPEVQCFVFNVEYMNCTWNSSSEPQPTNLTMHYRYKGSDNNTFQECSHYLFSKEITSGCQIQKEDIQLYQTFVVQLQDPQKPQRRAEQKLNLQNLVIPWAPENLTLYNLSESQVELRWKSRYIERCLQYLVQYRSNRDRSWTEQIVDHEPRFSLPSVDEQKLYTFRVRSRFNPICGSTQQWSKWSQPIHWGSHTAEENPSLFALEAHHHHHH
Chain of native γc proteins from common marmoset (as listed by the source): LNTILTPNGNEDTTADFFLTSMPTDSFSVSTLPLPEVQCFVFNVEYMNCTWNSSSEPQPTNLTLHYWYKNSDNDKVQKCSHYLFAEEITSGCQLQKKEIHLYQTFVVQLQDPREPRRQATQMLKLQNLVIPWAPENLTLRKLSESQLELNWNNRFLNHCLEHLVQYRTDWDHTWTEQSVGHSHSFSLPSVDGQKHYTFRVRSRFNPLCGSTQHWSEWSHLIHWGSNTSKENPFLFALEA

| Ka (mouse γc) | Kdis (mouse γc) | Ka (cynomolgus γc) | Kdis (cynomolgus γc) | Ka (human γc proteins; Experiment 1) | Kdis (human γc proteins; Experiment 1) | Ka (human γc proteins; Experiment 2) | Kdis (human γc proteins; Experiment 2) | Ka (common marmoset γc) | Kdis (common marmoset γc) | Molecule | inhibition of MLR induced expansion of cytotoxic T cells (T cells) | suppression of MLR induced expansion of T helper cells (T cells) | purity by SEC-HPLC after incubation [3] | IL-2 induced p-STAT3, percentage of inhibition (IL-2 induced p-STAT3) | IL-4 induced p-STAT6, percentage of inhibition (IL-4 induced p-STAT6) | also measured |
| --- | --- | --- | --- | --- | --- | --- | --- | --- | --- | --- | --- | --- | --- | --- | --- | --- |
| 6580 M⁻¹ s⁻¹ | 0.000712 s⁻¹ | 22500 M⁻¹ s⁻¹ | 0.00683 s⁻¹ | 119000 M⁻¹ s⁻¹ | 0.000319 s⁻¹ | 175000 M⁻¹ s⁻¹ | 0.00144 s⁻¹ | 300000 M⁻¹ s⁻¹ | 0.00121 s⁻¹ | hSM-05A: full-length humanized anti-γc antibody derived from SM-05A by framework patching (antibody, V domains shown) VH: QVQLVQSGAEVLKPGASVKVSCKASGYTFTEYTMHWVKQARGQRLEWIGGIDPYNGGATYNQRFKGKATLTTDTSTSTAYMELRNLRSDDTAVYYCARRRLYYGNALDYWGQGTLVTVSS VL: DIVMTQSPLSLPVTPGEQASISCRSSQSLVHSNGNTYLHWYLQKPGQSPQLLIYKVSSRFSGVPDRFSGSGSGTDFTLKISRVEAEDVGVYFCSQTTHVPFTFGSGTKLEIKR | could significantly inhibit | the suppression was milder to T helper cells | around 99.9% | 89.94% | 17.18% | suppression of IL-7 induced CD127 degradation [1]: better suppression to IL-7 induced BCL-2 upregulation and CD127 degradation than ritlecitinib; suppression of IL-9 induced ERK phosphorylation [2]: better suppression to IL-9 induced ERK phosphorylation than hSM-05E; aggregation state after incubation [3, 5]: remained as single molecule; binding to native common marmoset γc on HEK-293 [4]: could bind to the native γc proteins from humans and common marmoset |
| 340000 M⁻¹ s⁻¹ | 0.0252 s⁻¹ | 22500 M⁻¹ s⁻¹ | 0.00683 s⁻¹ | 119000 M⁻¹ s⁻¹ | 0.000573 s⁻¹ | 327000 M⁻¹ s⁻¹ | 0.000944 s⁻¹ | 333000 M⁻¹ s⁻¹ | 0.00175 s⁻¹ | hSM-05E: full-length humanized anti-γc antibody derived from SM-05E by framework patching (antibody, V domains shown) VH: QVQLVQSGAEVLKPGASVKVSCKASGYTFTEYTMHWVKQARGQRLEWIGGIDPNTGGVTYNQKFKGKATLTTDTSTSTAYMELRNLRSDDTAVYYCARRRRYYGYALDYWGQGTLVTVSS VL: DIVMTQSPLSLPVTPGEQASISCRSSQSIVHSNGNTYLEWYLQKPGQSPQLLIYKVSNRFSGVPDRFSGSGSGTDFTLKISRVEAEDVGVYFCSQSTHVPFMFGSGTKLEIKR | could significantly inhibit | the suppression was milder to T helper cells | around 80% | 58.45% | 21.74% | Ka (rat γc): 71000 M⁻¹ s⁻¹; Kdis (rat γc): 0.00208 s⁻¹; fraction forming aggregates [3, 5]: around 20% |
